Patent publication US20180318355A1, “METHODS AND COMPOSITIONS FOR IMPROVED TISSUE REGENERATION BY SUPPRESION OF INTERFERIN-GAMMA AND TUMOR NECROSIS FACTOR-ALPHA” (Alfred E. Mann Institute for Biomedical Eng. at the …, priority 2011, published 2018)
Entries after “also recorded” stand apart in the source; their conditions may differ. Where a SMILES comes first, the peptide text is derived from it. The star is where a group is joined. Cbz = O=C(OCc1ccccc1)*; CH2F = FC*

Assays:
[1] = tested on: Fas, caspase 8, caspase 3; experiment: Western blot of Fas, cleaved caspase 8 and cleaved caspase 3 in BMMSCs; format: cell-based, mouse; details: for cleaved caspase 3 in IFN-γ/TNF-α-treated BMMSCs / cleaved caspase 8 in IFN-γ/TNF-α-treated BMMSCs: siRNA or inhibitor treatment before IFN-γ/TNF-α
Experimental: (§1) Western blot analysis. Total protein was extracted using M-PER mammalian protein extraction reagent (Thermo, Rockford, Ill.). Nuclear protein was obtained using NE-PER nuclear and cytoplasmic extraction reagent (Thermo). Protein was applied and separated on 4-12% NuPAGE gel (Invitrogen) and transferred to Immobilon™-P membranes (Millipore). The membranes were blocked with 5% non-fat dry milk and 0.1% tween-20 for 1 hour, followed by incubation with the primary antibodies (1:20¬1000 dilution) at 4° C. overnight. Horseradish peroxidase-conjugated IgG (Santa Cruz Biosciences; 1:10,000) was used to treat the membranes for 1 hour, and enhanced with a SuperSignal® West Pico Chemiluminescent Substrate (Thermo). The bands were detected on BIOMAX MR films (Kodak, Rochester, N.Y.). Each membrane was also stripped using a stripping buffer (Thermo) and reprobed with anti-β-actin antibody to quantify the amount of loaded protein.
(§2) SiRNAs for Fas, TNFR2, IKK, FLIP and XIAP were used to treat the BMMSCs according to the manufacture's instruction, and IFN-γ and TNF-α were added for 24 hrs. Inhibitors for internalization (Latrunculin A, 0.2 μM), pan caspase (Z-VAD (OMe)-FMK, 50 μM), caspase 8 ([…], 20 μM) and caspase 3 (Z-DEVD-FMK, 20 µM) were used to treat the BMMSCs at 4 hrs before IFN-γ and TNF-α were added. Cell apoptosis were analysis by immunofluorescence staining and FACS^Calibur (Annexin V-PE apoptosis detection kit I) and Western blot analysis for caspase 8, cleaved caspase 8, caspase 3 and cleaved caspase 3.

Fas = Fas internalization (immunocytochemical staining); format: cell-based, mouse; details: caspase inhibitor in IFN-γ/TNF-α-treated BMMSCs vs control group
Experimental: as §2
Fas internalization. P1 BMMSCs were seeded to 2-well chamber slide. IFN-γ (50 ng/ml) was added to pre-treat BMMSCs for 24 hours, and then TNF-α (20 ng/ml) was added. At the 0.5, 1, 2, 4 hours after TNF-α was added, the cells were washed by PBS twice, and fixed with 4% PFA for 15 min. After treated by Triton-X 15 min, the cells were blocked with normal serum matched to secondary antibodies, incubated with 1 μg/ml anti-Fas (Santa Cruz) antibody at room temperature for 2 hours, treated with Rhodamin-conjugated secondary antibodies (1:200, Jackson ImmunoResearch). Then the cells were incubated with ([…] (1:40; Invitrogen) at room temperature for 20 min, and were mounted by vectashield mounting medium DAPI (Vector Laboratories).

BMMSCs [2] = experiment: siRNA and inhibitors: IFN-γ/TNF-α-induced BMMSC death; format: cell-based, mouse; details: siRNA or inhibitor treatment before IFN-γ/TNF-α, toluidine blue staining
Experimental: as §2

BMMSCs [3] = experiment: Cell apoptosis and cell survival assay in vitro (toluidine blue, Annexin V); details: for BMMSC death / viability: single cytokine, 1-200 ng/ml, three days
Experimental: Cell apoptosis and cell survival assay. 0.5×10^6 BMMSCs were seeded to 6-well culture plate and co-cultured with different doses of recombined IL-4, IL-6, IL-17A, TGF-β1, TNF-α and IFN-γ (0, 10, 20, 50, 100, 200 ng/ml) for 3 days. To measure the cell viability, the total cells were analyzed by using a cell counting kit-8 (Dojindo Molecular Technoloies, Gaithersburg, Md.) according to the manufacture's instruction. And the culture plates with cells were stained with 2% toluidine blue O and 2% paraformaldehyde (Sigma-Aldrich Corporate, St. Louis, Mo.).
For cell apoptosis analysis, the BMMSCs were stained by Annexin V-PE apoptosis detection kit I (BD Bioscience) following manufacture's protocol, and analyzed by FACS^Calibur (BD Bioscience).
IFN-γ and TNF-α synergism for apoptosis. For cell apoptosis staining, the 1×10^4 BMMSCs were seeded onto two chambers slide, IFN-γ (50 ng/ml) and TNF-α (20 ng/ml) were used to treat the BMMSCs for 24 hrs either separately or combined, Annexin V-PE apoptosis detection kit I (BD Bioscience) was used to stain the BMMSCs following manufacture's protocol, and analyzed on microscopy and FACS^Calibur (BD Bioscience). Cell viability was analyzed by using cell counting kit, and culture plates were stained with 2% toluidine blue O and 2% paraformaldehyde.
IFN-γ and TNF-α synergism for apoptosis. 0.5×10^6 BMMSCs were seeded to 6-well culture plate and co-cultured with different doses of TNF-α (0, 5, 50, 100 ng/ml) with or without IFN-γ (50 ng/ml) for I day. Then, the BMMSCs were stained by Annexin V-PE apoptosis detection kit I (BD Bioscience) following manufacture's protocol, and analyzed by FACS^Calibur (BD Bioscience).

[4] = tested on: BMMSC-mediated bone formation; experiment: BMMSC-mediated bone formation, subcutaneous BMMSC/HA/TCP implantation; format: in vivo; details: 200 ng cytokine in hydrogel co-implanted with BMMSCs/HA/TCP, immunocompromised mice, 8 weeks post implantation
Experimental: BMMSC-mediated bone formation. Approximately 4.0×10^6 BMMSCs were mixed with hydroxyapatite/tricalcium phosphate (HA/TCP) ceramic particles (40 mg, Zimmer Inc., Warsaw, Ind.) as a carrier and subcutaneously implanted into the dorsal surface of 8-10 weeks old immunocompromised mice or C57BL/6J mice. At eight weeks post-implantation, the implants were harvested, fixed in 4% paraformaldehyde and then decalcified with 5% EDTA (pH 7.4), followed by paraffin embedding. The 6 μm paraffin sections were stained with hematoxylin and eosin (H&E) and analyzed by an NIH Image J. Five fields were selected and newly formed mineralized tissue area in each field was calculated and shown as a percentage to total tissue area.
Cytokines in BMMSC-mediated bone formation. Approximately 4.0×10^6 of littermate-derived or autologous BMMSCs were mixed with HA/TCP ceramic powders (40 mg, Zimmer Inc.), and hydrogel (Glycosan Biosysterms, Salt Lake City, Utah) with 200 ng IFN-γ, TNF-α, IL-4, IL-6 or IL-17A were covered on the surface of the implants as a slow released system. At eight weeks post-implantation, the implants were harvested and newly formed mineralized tissue areas were analyzed. […]
BMMSC-mediated bone formation. Approximately 4.0×10^6 of littermate-derived or autologous BMMSCs were mixed with hydroxyapatite/tricalcium phosphate (HA/TCP) ceramic particles (40 mg, Zimmer Inc., Warsaw, Ind.) as a carrier and subcutaneously implanted into the dorsal surface of 8-10 weeks old immunocompromised mice or C57BL6 mice. When aspirin was used, BMMSCs were treated with 50 μg/ml aspirin for 2 days and mixed with HA/TCP particles to be subcutaneously implanted into immunocompromised mice. When IFN-γ and TNF-α were used in the subcutaneous implants, 200 ng IFN-γ, TNF-α or/and 100 μg aspirin mixed with 250 μl hydrogel as a slow released system and subcutaneously co-implanted to the dorsal surface of 8-10 weeks old immunocompromised mice.
At eight weeks post-implantation, the implants were harvested, fixed in 4% paraformaldehyde and then decalcified with 5% EDTA (pH 7.4), followed by paraffin embedding. The 6 μm paraffin sections were stained with hematoxylin and eosin (H&E) and analyzed by an NIH Image J. Five fields were selected and newly formed mineralized tissue area in each field was calculated and shown as a percentage to total tissue area.

BMMSCs [5] = experiment: Osteogenic differentiation assay (alizarin red staining); format: cell-based, mouse; details: for mineralized nodule formation / osteogenic differentiation of BMMSCs: alizarin red
Experimental: (§3) Osteogenic differentiation assay. BMMSCs were cultured under osteogenic culture condition media containing 2 mM […] (Sigma-Aldrich), 100 μM L-ascorbic acid 2-phosphate and 10 nM dexamethasone (Sigma-Aldrich). Different doses of IFN-γ (50, 200 ng/ml) were added to the osteogenic culture condition media every 3 days. After the osteogenic induction, the cultures were stained with alizarin red. Expressions of Runx2, ALP, and OCN were assayed by Western blot analysis.

[6] = tested on: Smad 6, Smad 7, Runx2, ALP, OCN; experiment: Western blot of Smad 6, Smad 7 and osteogenic genes in BMMSCs; format: cell-based, mouse
Experimental: as §3, §1

[7] = 200 ng/ml cytokine, osteogenic media, 14 days
[8] = Fas^−/− BMMSCs from lpr mice and Fas knock down BMMSCs by siRNA
[9] = wild type BMMSCs, IFN-γ 50 ng/ml, TNF-α 20 ng/ml, alone or co-stimulated

## CC[C@H](C)[C@H](NC(=O)OCc1ccccc1)C(=O)N[C@@H](CCC(=O)OC)C(=O)N[C@H](C(=O)N[C@@H](CC(=O)OC)C(=O)CF)[C@@H](C)O [Caspase 8 inhibitor, 2-IETD-FMK] (Cbz-IE(OMe)TD(OMe)-CH2F)
[1]
  cleaved caspase 3 in IFN-γ/TNF-α-treated BMMSCs: reduce levels
  cleaved caspase 8 in IFN-γ/TNF-α-treated BMMSCs: reduce levels
Fas
  number of BMMSCs with Fas internalization: reduced number of Fas internalization
BMMSCs [2]
  IFN-γ/TNF-α-induced BMMSC death: rescuing INF-γ/TNF-α-induced cell death

## C/C1=C/C(=O)O[C@@H]2C[C@@H](CC[C@H](C)/C=C\C=C\CC1)O[C@@](O)([C@@H]1CSC(=O)N1)C2 [Lnt A, Latrunculin A]
[1]
  cleaved caspase 3 in IFN-γ/TNF-α-treated BMMSCs: significantly reduced
  cleaved caspase 8 in IFN-γ/TNF-α-treated BMMSCs: significantly reduced
[1]; listed as LntA
  cleaved caspase 3 in IFN-γ/TNF-α-treated BMMSCs: inhibition of cleaved caspase 3 and 8
  cleaved caspase 8 in IFN-γ/TNF-α-treated BMMSCs: inhibition of cleaved caspase 3 and 8
BMMSCs [2]
  IFN-γ/TNF-α-induced BMMSC death: significantly reduced
BMMSCs [2]; listed as LntA
  IFN-γ/TNF-α-induced BMMSC death: partially rescue

## TGF-β1: recombined TGF-β1 cytokine co-cultured with BMMSCs
BMMSCs [3]; toluidine blue staining
  BMMSC death / viability: no effect

## COC(=O)C[C@H](NC(=O)[C@H](C)NC(=O)[C@@H](NC(=O)OCc1ccccc1)C(C)C)C(=O)CF [pan caspase inhibitor, Z-VAD (OMe)-FMK] (Cbz-Val-Ala-Asp(OMe)-CH2F)
Fas
  number of BMMSCs with Fas internalization: reduced number of Fas internalization

B1: IFN-γ: Recombinant murine IFN-γ purchased from PeproTech (protein, UniProt P01580 23-155, looked up)
Interferon gamma: HGTVIESLESLNNYFNSSGIDVEEKSLFLDIWRNWQKDGDMKILQSQIISFYLRLFEVLKDNQAISNNISVIESHLITTFFSNSKAKKDAFMSIAKFEVNNPQVQRQAFNELIRVVHQLLPESSLRKRKRSRC
[4]
  new bone formation in BMMSC implants: completely blockage of new bone formation; also recorded: inhibited subcutaneous bone formation; also recorded: reduced BMMSC-mediated bone formation; also recorded: significantly reduced bone formation
BMMSCs [5]; 50 ng/ml IFN-γ
  mineralized nodule formation / osteogenic differentiation of BMMSCs: no significant inhibitive effect; also recorded: no inhibitory effect
BMMSCs [5]; [7]
  mineralized nodule formation / osteogenic differentiation of BMMSCs: significantly inhibited mineralized nodule formation; also recorded: significant reduction in mineralized nodule formation; also recorded: inhibited osteogenic differentiation
BMMSCs [5]; [8]
  osteogenesis of Fas-deficient BMMSCs: failed to block osteogenesis; also recorded: failed to reduce ostoegenic differentiation
[6]; 50 ng/ml IFN-γ
  Smad 6 elevation and inhibition of osteogenic genes: not observed
[6]; 200 ng/ml IFN-γ
  Smad 6 expression: elevated; also recorded: up-regulated expression
  expression of osteogenic genes Runx2, ALP and OCN: inhibited; also recorded: down-regulated expression
[6]; [8]
  expression levels of Smad 6 and Runx2: failed to block osteogenesis and alter expression levels of Smad 6 and Runx2; also recorded: failed to reduce ostoegenic differentiation and alter expression levels of Smad 6 and Runx2
[6]; IFN-γ-treated BMMSCs
  expression level of Smad 7: not altered
[1]; [9]
  Fas expression: up-regulated expression of Fas; also recorded: activated
  activation of caspase 3 and caspase 8: no activation of caspase 3 and caspase 8; also recorded: without activating caspase 3 and caspase 8
BMMSCs [3]; IFN-γ 50 ng/ml added to TNF-α 0, 5, 50, 100 ng/ml, flow cytometric analysis
  TNF-α-induced BMMSC apoptosis: significantly enhanced TNF-α-induced BMMSC apoptosis
BMMSCs [3]; IFN-γ 50 ng/ml added to TNF-α 50-200 ng/ml, toluidine blue staining
  TNF-α-induced BMMSC apoptosis: synergistically enhanced; also recorded: significantly enhanced BMMSC apoptosis
BMMSCs [3]; IFN-γ 50 ng/ml with TNF-α 20 ng/ml, 7AAD/Annexin staining
  TNF-α-induced BMMSC apoptosis: accelerated; also recorded: enhanced
BMMSCs [3]; IFN-γ 1 to 50 ng/ml with TNF-α 50 ng/ml
  BMMSC death: dose dependent BMMSC death; also recorded: correlated with IFN-γ concentration
BMMSCs [3]; IFN-γ 100-200 ng/ml with TNF-α 50 ng/ml
  BMMSC death: no any BMMSC survived; also recorded: complete BMMSC apoptosis
BMMSCs [3]; toluidine blue staining
  BMMSC death / viability: no effect; also recorded: not able to induce BMMSC apoptosis

B2: IL-6: Recombinant murine IL-6 purchased from PeproTech (protein, UniProt P08505 25-211, looked up)
Interleukin-6: FPTSQVRRGDFTEDTTPNRPVYTTSQVGGLITHVLWEIVEMRKELCNGNSDCMNNDDALAENNLKLPEIQRNDGCYQTGYNQEICLLKISSGLLEYHSYLEYMKNNLKDNKKDKARVLQRDTETLIHIFNQEVKDLHKIVLPTPISNALLTDKLESQKEWLRTKTIQFILKSLEEFLKVTLRSTRQT
[4]
  new bone formation in BMMSC implants: a reduction in new bone formation; also recorded: slightly inhibited
BMMSCs [5]; [7]
  mineralized nodule formation / osteogenic differentiation of BMMSCs: no inhibition effect
BMMSCs [3]; toluidine blue staining
  BMMSC death / viability: no effect

B3: IL-17A: Recombinant murine IL-17A purchased from PeproTech (protein, UniProt Q62386 26-158, looked up)
Interleukin-17A: AAIIPQSSACPNTEAKDFLQNVKVNLKVFNSLGAKVSSRRPSDYLNRSTSPWTLHRNEDPDRYPSVIWEAQCRHQRCVNAEGKLDHHMNSVLIQQEILVLKREPESCPFTFRVEKMLVGVGCTCVASIVRQAA
[4]
  new bone formation in BMMSC implants: no inhibitory effect
[4]; listed as IL-17
  new bone formation in BMMSC implants: no inhibitive effect
BMMSCs [5]; [7]
  mineralized nodule formation / osteogenic differentiation of BMMSCs: no inhibition effect
BMMSCs [3]; toluidine blue staining
  BMMSC death / viability: no effect

B4: IL-4: Recombinant murine IL-4 purchased from PeproTech (protein, UniProt P07750 21-140, looked up)
Interleukin-4: HIHGCDKNHLREIIGILNEVTGEGTPCTEMDVPNVLTATKNTTESELVCRASKVLRIFYLKHGKTPCLKKNSSVLMELQRLFRAFRCLDSSISCTMNESKSTSLKDFLESLKSIMQMDYS
[4]
  new bone formation in BMMSC implants: a reduction in new bone formation; also recorded: slightly inhibited
BMMSCs [5]; [7]
  mineralized nodule formation / osteogenic differentiation of BMMSCs: reduced mineralized nodule formation; also recorded: partial inhibition
BMMSCs [3]; toluidine blue staining
  BMMSC death / viability: no effect
